Target: human VWF (human)
Assay: ELISA

Sequence of human VWF (human) (P04275 whole entry): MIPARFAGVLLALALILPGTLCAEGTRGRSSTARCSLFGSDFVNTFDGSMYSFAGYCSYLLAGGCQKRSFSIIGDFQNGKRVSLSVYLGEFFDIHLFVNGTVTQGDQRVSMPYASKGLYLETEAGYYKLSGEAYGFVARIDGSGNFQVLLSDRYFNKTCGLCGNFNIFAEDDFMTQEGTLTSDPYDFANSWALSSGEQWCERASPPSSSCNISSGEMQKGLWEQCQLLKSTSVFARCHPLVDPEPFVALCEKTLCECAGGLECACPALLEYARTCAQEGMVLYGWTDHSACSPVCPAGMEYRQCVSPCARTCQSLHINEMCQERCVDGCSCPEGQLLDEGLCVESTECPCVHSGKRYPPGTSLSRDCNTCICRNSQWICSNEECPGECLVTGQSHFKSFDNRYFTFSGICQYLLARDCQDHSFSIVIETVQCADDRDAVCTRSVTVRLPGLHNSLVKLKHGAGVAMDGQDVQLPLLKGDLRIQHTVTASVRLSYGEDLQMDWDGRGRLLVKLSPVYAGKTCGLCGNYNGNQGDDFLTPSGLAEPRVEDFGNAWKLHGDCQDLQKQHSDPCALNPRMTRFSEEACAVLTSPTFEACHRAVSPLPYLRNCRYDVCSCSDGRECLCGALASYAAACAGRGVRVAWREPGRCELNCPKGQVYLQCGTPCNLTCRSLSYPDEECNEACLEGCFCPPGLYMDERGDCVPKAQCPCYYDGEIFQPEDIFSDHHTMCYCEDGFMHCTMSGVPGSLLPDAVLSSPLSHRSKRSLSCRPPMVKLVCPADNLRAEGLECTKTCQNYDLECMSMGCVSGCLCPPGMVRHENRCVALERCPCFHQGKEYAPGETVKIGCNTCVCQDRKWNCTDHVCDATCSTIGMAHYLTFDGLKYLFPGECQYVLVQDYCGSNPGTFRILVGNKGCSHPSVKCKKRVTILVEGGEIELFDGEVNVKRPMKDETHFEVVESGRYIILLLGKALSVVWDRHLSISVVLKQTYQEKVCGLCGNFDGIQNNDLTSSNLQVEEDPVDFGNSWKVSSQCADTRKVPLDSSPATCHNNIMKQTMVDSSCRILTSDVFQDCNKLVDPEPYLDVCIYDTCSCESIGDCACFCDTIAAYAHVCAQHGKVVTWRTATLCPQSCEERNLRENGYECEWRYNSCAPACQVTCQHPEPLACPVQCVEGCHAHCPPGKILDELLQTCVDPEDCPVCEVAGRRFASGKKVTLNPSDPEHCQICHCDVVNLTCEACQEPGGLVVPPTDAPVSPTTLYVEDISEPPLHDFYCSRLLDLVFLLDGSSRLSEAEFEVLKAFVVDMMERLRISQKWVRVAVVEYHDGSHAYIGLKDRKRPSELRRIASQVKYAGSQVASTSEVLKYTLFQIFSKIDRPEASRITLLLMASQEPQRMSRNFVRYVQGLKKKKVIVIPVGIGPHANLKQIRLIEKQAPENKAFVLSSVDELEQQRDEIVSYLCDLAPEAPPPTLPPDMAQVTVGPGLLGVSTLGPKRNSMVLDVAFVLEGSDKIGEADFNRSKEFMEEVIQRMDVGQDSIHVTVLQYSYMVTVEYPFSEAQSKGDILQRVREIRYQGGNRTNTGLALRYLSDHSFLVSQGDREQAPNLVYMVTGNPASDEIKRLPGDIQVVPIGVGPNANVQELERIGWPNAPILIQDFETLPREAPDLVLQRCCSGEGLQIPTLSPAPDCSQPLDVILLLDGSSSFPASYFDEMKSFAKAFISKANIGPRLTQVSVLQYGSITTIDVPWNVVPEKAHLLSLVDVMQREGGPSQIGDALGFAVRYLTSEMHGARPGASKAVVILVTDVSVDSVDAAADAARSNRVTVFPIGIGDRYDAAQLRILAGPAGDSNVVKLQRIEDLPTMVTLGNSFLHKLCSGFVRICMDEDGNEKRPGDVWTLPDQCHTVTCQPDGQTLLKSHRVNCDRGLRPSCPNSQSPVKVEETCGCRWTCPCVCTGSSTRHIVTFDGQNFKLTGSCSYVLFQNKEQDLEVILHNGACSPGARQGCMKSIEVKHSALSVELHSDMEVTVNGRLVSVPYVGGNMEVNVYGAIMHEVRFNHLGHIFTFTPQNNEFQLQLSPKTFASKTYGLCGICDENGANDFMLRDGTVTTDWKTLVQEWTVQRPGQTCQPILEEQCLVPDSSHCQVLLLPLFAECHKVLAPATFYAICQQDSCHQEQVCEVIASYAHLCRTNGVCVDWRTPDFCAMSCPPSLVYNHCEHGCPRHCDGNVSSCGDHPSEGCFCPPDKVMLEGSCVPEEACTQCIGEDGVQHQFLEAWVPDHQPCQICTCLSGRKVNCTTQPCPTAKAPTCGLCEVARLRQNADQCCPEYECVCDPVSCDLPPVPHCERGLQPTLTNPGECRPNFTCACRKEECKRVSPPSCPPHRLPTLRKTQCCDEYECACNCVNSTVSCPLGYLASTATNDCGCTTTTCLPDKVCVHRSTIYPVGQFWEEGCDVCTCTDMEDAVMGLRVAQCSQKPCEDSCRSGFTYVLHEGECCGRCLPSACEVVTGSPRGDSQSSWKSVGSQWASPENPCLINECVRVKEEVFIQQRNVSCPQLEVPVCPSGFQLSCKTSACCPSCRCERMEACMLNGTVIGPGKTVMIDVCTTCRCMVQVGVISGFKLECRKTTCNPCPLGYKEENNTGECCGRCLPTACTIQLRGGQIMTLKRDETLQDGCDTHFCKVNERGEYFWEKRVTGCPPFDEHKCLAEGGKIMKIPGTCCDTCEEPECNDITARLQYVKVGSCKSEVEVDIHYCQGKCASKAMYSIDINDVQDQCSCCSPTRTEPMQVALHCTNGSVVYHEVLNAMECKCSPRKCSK

| Binder | EC50 |
| --- | --- |
| 25B05_H4-L2 (antibody, V domains shown) VH: EVQLVQSGAEVKKPGASVKVSCKASGYTFTDYFMNWVRQAPGQRLEWMGVINPHNGGTSYSQKFQGRVTLTVDKSSSTAYMELSSLRSEDTAVYYCARRPLGSDYWGQGTTVTVSS VL: DIVMTQSPSSVSASVGDRVTITCKASQNVGTAVAWYQQKPGKAPKLLIYSASSRYTGVPSRFSGSGSGTDFTLTISSLQPEDFATYYCQQYSSYPLTFGQGTKLEIK | 0.0357 µg/mL |
| 25B05_H2-L2 (antibody, V domains shown) VH: QVQLVQSGAEVKKPGASVKVSCKASGYTFTDYFMNWVRQAPGQRLEWMGVINPHNGGTSYSQKFQGRVTITVDKSSSTAYMELSSLRSEDTAVYYCARRPLGSDYWGQGTTVTVSS VL: DIVMTQSPSSVSASVGDRVTITCKASQNVGTAVAWYQQKPGKAPKLLIYSASSRYTGVPSRFSGSGSGTDFTLTISSLQPEDFATYYCQQYSSYPLTFGQGTKLEIK | 0.0564 µg/mL |
| 25B05_H1-L3 (antibody, V domains shown) VH: QVQLVQSGAEVKKPGASVKVSCKASGYTFTDYFMNWVRQAPGQRLEWMGVINPHNGGTSYSQKFQGRVTITRDTSASTAYMELSSLRSEDTAVYYCARRPLGSDYWGQGTTVTVSS VL: DIQMTQSPSSVSASVGDRVTITCKASQNVGTAVAWYQQKPGKAPKLLIYSASSRYTEVPDRFSGSGSGTDFTLTISSLQPEDFATYYCQQYSSYPLTFGQGTKLEIK | 0.0335 µg/mL |
| 25B05_H3-L2 (antibody, V domains shown) VH: EVQLVQSGAEVKKPGASVKVSCKASGYTFTDYFMNWVRQAPGQRLEWMGVINPHNGGTSYSQKFQGRVTITVDKSSSTAYMELSSLRSEDTAVYYCARRPLGSDYWGQGTTVTVSS VL: DIVMTQSPSSVSASVGDRVTITCKASQNVGTAVAWYQQKPGKAPKLLIYSASSRYTGVPSRFSGSGSGTDFTLTISSLQPEDFATYYCQQYSSYPLTFGQGTKLEIK | 0.0516 µg/mL |
| 25B05_H3-L4 (antibody, V domains shown) VH: EVQLVQSGAEVKKPGASVKVSCKASGYTFTDYFMNWVRQAPGQRLEWMGVINPHNGGTSYSQKFQGRVTITVDKSSSTAYMELSSLRSEDTAVYYCARRPLGSDYWGQGTTVTVSS VL: DIVMTQSPSSVSASVGDRVTITCKASQNVGTAVAWYQQKPGKAPKLLIYSASSRYTEVPDRFSGSGSGTDFTLTISSLQPEDFATYYCQQYSSYPLTFGQGTKLEIK | 0.0379 µg/mL |
| 25B05_H2-L4 (antibody, V domains shown) VH: QVQLVQSGAEVKKPGASVKVSCKASGYTFTDYFMNWVRQAPGQRLEWMGVINPHNGGTSYSQKFQGRVTITVDKSSSTAYMELSSLRSEDTAVYYCARRPLGSDYWGQGTTVTVSS VL: DIVMTQSPSSVSASVGDRVTITCKASQNVGTAVAWYQQKPGKAPKLLIYSASSRYTEVPDRFSGSGSGTDFTLTISSLQPEDFATYYCQQYSSYPLTFGQGTKLEIK | 0.0312 µg/mL |
| 25B05_H2-L1 (antibody, V domains shown) VH: QVQLVQSGAEVKKPGASVKVSCKASGYTFTDYFMNWVRQAPGQRLEWMGVINPHNGGTSYSQKFQGRVTITVDKSSSTAYMELSSLRSEDTAVYYCARRPLGSDYWGQGTTVTVSS VL: DIQMTQSPSSVSASVGDRVTITCKASQNVGTAVAWYQQKPGKAPKLLIYSASSRYTGVPSRFSGSGSGTDFTLTISSLQPEDFATYYCQQYSSYPLTFGQGTKLEIK | 0.0612 µg/mL |
| 25B05_H2-L3 (antibody, V domains shown) VH: QVQLVQSGAEVKKPGASVKVSCKASGYTFTDYFMNWVRQAPGQRLEWMGVINPHNGGTSYSQKFQGRVTITVDKSSSTAYMELSSLRSEDTAVYYCARRPLGSDYWGQGTTVTVSS VL: DIQMTQSPSSVSASVGDRVTITCKASQNVGTAVAWYQQKPGKAPKLLIYSASSRYTEVPDRFSGSGSGTDFTLTISSLQPEDFATYYCQQYSSYPLTFGQGTKLEIK | 0.0416 µg/mL |
| 25B05_H3-L1 (antibody, V domains shown) VH: EVQLVQSGAEVKKPGASVKVSCKASGYTFTDYFMNWVRQAPGQRLEWMGVINPHNGGTSYSQKFQGRVTITVDKSSSTAYMELSSLRSEDTAVYYCARRPLGSDYWGQGTTVTVSS VL: DIQMTQSPSSVSASVGDRVTITCKASQNVGTAVAWYQQKPGKAPKLLIYSASSRYTGVPSRFSGSGSGTDFTLTISSLQPEDFATYYCQQYSSYPLTFGQGTKLEIK | 0.0594 µg/mL |

More lines, now with the values ahead:

| EC50 | Binder |
| --- | --- |
| 0.0498 µg/mL | 33D03_par (antibody, V domains shown) VH: EVQLQQSRPVLVKPGASVKMSCKASGYTFTDYYLNWVKQSPGKRLEWIGIINPYNGGTNYNQRFKGKATLTVDKSSSTAYMELNSLTSEDSAVYFCASEGLRTWFTYWGQGTLVTVSA VL: DIVMTQSPSSLSVSAGEKVTMSCKSSQSLSNSGNQKIYLAWYQQKPGQPPKLLIYGASSRESGVPDRFTGSGSEIDFTLTISSVQAEDLAVYYCQNDHSHPFTFGSGTKLEIK |
| 0.0271 µg/mL | 25B05_H4-L3 (antibody, V domains shown) VH: EVQLVQSGAEVKKPGASVKVSCKASGYTFTDYFMNWVRQAPGQRLEWMGVINPHNGGTSYSQKFQGRVTLTVDKSSSTAYMELSSLRSEDTAVYYCARRPLGSDYWGQGTTVTVSS VL: DIQMTQSPSSVSASVGDRVTITCKASQNVGTAVAWYQQKPGKAPKLLIYSASSRYTEVPDRFSGSGSGTDFTLTISSLQPEDFATYYCQQYSSYPLTFGQGTKLEIK |
| 0.0483 µg/mL | 33D03_H3-L3 (antibody, V domains shown) VH: QVQLVQSGAEVKKPGASVKVSCKASGYTFTDYYLNWVRQAPGQRLEWMGIINPYNGGTNYSQKFQGRVTITVDKSSSTAYMELSSLRSEDTAVYYCASEGLRTWFTYWGQGTLVTVSS VL: DIVMTQSPDSLAVSLGERATINCKSSQSLSNSGNQKIYLAWYQQKPGQPPKLLIYGASSRESGVPDRFSGSGSEIDFTLTISSLQAEDVAVYYCQNDHSHPFTFGQGTKLEIK |
| 0.0597 µg/mL | 33D03_H1-L3 (antibody, V domains shown) VH: QVQLVQSGAEVKKPGASVKVSCKASGYTFTDYYLNWVRQAPGQRLEWMGIINPYNGGTNYSQKFQGRVTITRDTSASTAYMELSSLRSEDTAVYYCASEGLRTWFTYWGQGTLVTVSS VL: DIVMTQSPDSLAVSLGERATINCKSSQSLSNSGNQKIYLAWYQQKPGQPPKLLIYGASSRESGVPDRFSGSGSEIDFTLTISSLQAEDVAVYYCQNDHSHPFTFGQGTKLEIK |
| 0.0354 µg/mL | 33D03_H4-L2 (antibody, V domains shown) VH: QVQLVQSGAEVKKPGASVKVSCKASGYTFTDYYLNWVRQAPGQRLEWMGIINPYNGGTNYNQRFKGRVTITVDKSSSTAYMELSSLRSEDTAVYYCASEGLRTWFTYWGQGTLVTVSS VL: DIVMTQSPDSLAVSLGERATISCKSSQSLSNSGNQKIYLAWYQQKPGQPPKLLIYGASSRESGVPDRFSGSGSGTDFTLTISSLQAEDVAVYYCQNDHSHPFTFGQGTKLEIK |
| 0.0371 µg/mL | 33D03_H2-L3 (antibody, V domains shown) VH: QVQLVQSGAEVKKPGASVKVSCKASGYTFTDYYLNWVRQAPGQRLEWMGIINPYNGGTNYNQRFKGRVTITRDTSASTAYMELSSLRSEDTAVYYCASEGLRTWFTYWGQGTLVTVSS VL: DIVMTQSPDSLAVSLGERATINCKSSQSLSNSGNQKIYLAWYQQKPGQPPKLLIYGASSRESGVPDRFSGSGSEIDFTLTISSLQAEDVAVYYCQNDHSHPFTFGQGTKLEIK |
| 0.0457 µg/mL | 33D03_H3-L2 (antibody, V domains shown) VH: QVQLVQSGAEVKKPGASVKVSCKASGYTFTDYYLNWVRQAPGQRLEWMGIINPYNGGTNYSQKFQGRVTITVDKSSSTAYMELSSLRSEDTAVYYCASEGLRTWFTYWGQGTLVTVSS VL: DIVMTQSPDSLAVSLGERATISCKSSQSLSNSGNQKIYLAWYQQKPGQPPKLLIYGASSRESGVPDRFSGSGSGTDFTLTISSLQAEDVAVYYCQNDHSHPFTFGQGTKLEIK |
| 0.0394 µg/mL | 33D03_H2-L2 (antibody, V domains shown) VH: QVQLVQSGAEVKKPGASVKVSCKASGYTFTDYYLNWVRQAPGQRLEWMGIINPYNGGTNYNQRFKGRVTITRDTSASTAYMELSSLRSEDTAVYYCASEGLRTWFTYWGQGTLVTVSS VL: DIVMTQSPDSLAVSLGERATISCKSSQSLSNSGNQKIYLAWYQQKPGQPPKLLIYGASSRESGVPDRFSGSGSGTDFTLTISSLQAEDVAVYYCQNDHSHPFTFGQGTKLEIK |
| 0.0381 µg/mL | 33D03_H2-L4 (antibody, V domains shown) VH: QVQLVQSGAEVKKPGASVKVSCKASGYTFTDYYLNWVRQAPGQRLEWMGIINPYNGGTNYNQRFKGRVTITRDTSASTAYMELSSLRSEDTAVYYCASEGLRTWFTYWGQGTLVTVSS VL: DIVMTQSPDSLAVSLGERATISCKSSQSLSNSGNQKIYLAWYQQKPGQPPKLLIYGASSRESGVPDRFSGSGSEIDFTLTISSLQAEDVAVYYCQNDHSHPFTFGQGTKLEIK |
| 0.0365 µg/mL | 33D03_H4-L4 (antibody, V domains shown) VH: QVQLVQSGAEVKKPGASVKVSCKASGYTFTDYYLNWVRQAPGQRLEWMGIINPYNGGTNYNQRFKGRVTITVDKSSSTAYMELSSLRSEDTAVYYCASEGLRTWFTYWGQGTLVTVSS VL: DIVMTQSPDSLAVSLGERATISCKSSQSLSNSGNQKIYLAWYQQKPGQPPKLLIYGASSRESGVPDRFSGSGSEIDFTLTISSLQAEDVAVYYCQNDHSHPFTFGQGTKLEIK |
| 0.0371 µg/mL | 33D03_H4-L3 (antibody, V domains shown) VH: QVQLVQSGAEVKKPGASVKVSCKASGYTFTDYYLNWVRQAPGQRLEWMGIINPYNGGTNYNQRFKGRVTITVDKSSSTAYMELSSLRSEDTAVYYCASEGLRTWFTYWGQGTLVTVSS VL: DIVMTQSPDSLAVSLGERATINCKSSQSLSNSGNQKIYLAWYQQKPGQPPKLLIYGASSRESGVPDRFSGSGSEIDFTLTISSLQAEDVAVYYCQNDHSHPFTFGQGTKLEIK |
| 0.0381 µg/mL | 33D03_H4-L1 (antibody, V domains shown) VH: QVQLVQSGAEVKKPGASVKVSCKASGYTFTDYYLNWVRQAPGQRLEWMGIINPYNGGTNYNQRFKGRVTITVDKSSSTAYMELSSLRSEDTAVYYCASEGLRTWFTYWGQGTLVTVSS VL: DIVMTQSPDSLAVSLGERATINCKSSQSLSNSGNQKIYLAWYQQKPGQPPKLLIYGASSRESGVPDRFSGSGSGTDFTLTISSLQAEDVAVYYCQNDHSHPFTFGQGTKLEIK |
| 0.0373 µg/mL | 33D03_H2-L1 (antibody, V domains shown) VH: QVQLVQSGAEVKKPGASVKVSCKASGYTFTDYYLNWVRQAPGQRLEWMGIINPYNGGTNYNQRFKGRVTITRDTSASTAYMELSSLRSEDTAVYYCASEGLRTWFTYWGQGTLVTVSS VL: DIVMTQSPDSLAVSLGERATINCKSSQSLSNSGNQKIYLAWYQQKPGQPPKLLIYGASSRESGVPDRFSGSGSGTDFTLTISSLQAEDVAVYYCQNDHSHPFTFGQGTKLEIK |

Source: patent US20260317443 (published 2026)
